Experimental data reported in PMC3467072.

How the values were obtained:
[1] = biological target: Rv3066 regulator, full-length, with a 6xHis tag at the C-terminus (Mycobacterium tuberculosis strain H37Rv) (UniProt I6X658); assay: crystal structure
[2] = biological target: T1, Rv3066 (TetR-family regulator) (Mycobacterium tuberculosis H37Rv) (UniProt I6X658); assay: DNase I footprinting
T1 sequence: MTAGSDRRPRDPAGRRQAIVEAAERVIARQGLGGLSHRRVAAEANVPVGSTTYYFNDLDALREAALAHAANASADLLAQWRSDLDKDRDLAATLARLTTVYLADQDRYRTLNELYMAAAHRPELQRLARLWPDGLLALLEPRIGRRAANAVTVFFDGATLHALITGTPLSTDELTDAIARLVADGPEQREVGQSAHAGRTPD

Row | Substance | stoichiometry N [1] | binding [2]
1 | Rv3066 regulator, full-length, with a 6xHis tag at the C-terminus (from UniProt I6X658 1-202) (natural protein) | 2 | 
2 | TCGAGATCTTTCACCATGACACGACGTTACGGGGATCGACCGCGCGAACGCTGGGCGGATTTTGTCTCCCACCGGTGTGCCTACTCACGTGTGGACGCACGAGCCTCCTTTGTGTACATTTGTACACAAAGGAGGGGTCTTGATCTACCTATACCTCTTGTGCGCGATCTTCGCGGAAGTGGTGGCAACCAGCCTGCTCAAAAGCACGGAAGGGTTCACTCGGTTG (double strand) [226-bp mmr promoter probe (IR1, IR2 removed)] |  | binds
